The values that follow come from the Immune Epitope Database (IEDB).

Assay [1] has as its target HLA-B*15:17. Nature of the assay: IEDB peptide-MHC binding, purified MHC/competitive/fluorescence; filed as Kd, often an IC50 or EC50 that approximates it; ≥ and ≤ were set here for values at or beyond the usual limits of such assays. Conditions: source organism: Giardia lamblia ATCC 50803.
Assay [2] deals with HLA-A*69:01. The assay is described as above. Particulars: source organism: Giardia lamblia ATCC 50803.
Assay [3] addresses HLA-B*07:02. Nature of the assay: IEDB peptide-MHC binding, purified MHC/direct/fluorescence; filed as Kd, often an IC50 or EC50 that approximates it; ≥ and ≤ were set here for values at or beyond the usual limits of such assays.
For assay [4], the target named is HLA-A*11:01. Described as above.
For assay [5], the target named is HLA-B*57:01. The assay is described as above.
The target in assay [6] is HLA-B*48:01. The assay is described as above.
Assay [7] has as its target HLA-B*15:01. Described as above.
The target of assay [8] is HLA-A*01:01. The description is as above.
Assay [9] addresses HLA-B*40:01. The assay is described as above.
Assay [10] deals with HLA-B*46:01. Described as above.
The target in assay [11] is HLA-B*58:01. The description is as above.
In assay [12] the target is HLA-A*03:01. Described as above.
Assay [13] addresses HLA-B*27:05. The assay is described as above.
For assay [14], the target named is HLA-A*02:01. Described as above. Particulars: source organism: Giardia lamblia ATCC 50803.
In assay [15] the target is HLA-B*39:01. The description is as above.
In assay [16] the target is HLA-A*31:01. The description is as above.
Assay [17] deals with HLA-B*15:09. The assay is described as above.
The target in assay [18] is HLA-B*38:01. The assay is described as above. Particulars: source organism: Giardia lamblia ATCC 50803.
Assay [19] deals with HLA-B*08:02. Described as above.
The target in assay [20] is HLA-A*68:02. Nature of the assay: IEDB peptide-MHC binding, purified MHC/competitive/fluorescence; filed as Kd, often an IC50 or EC50 that approximates it; ≥ and ≤ were set here for values at or beyond the usual limits of such assays. Conditions: source organism: Coxiella burnetii Dugway 5J108-111.
Assay [21] addresses HLA-A*26:03. The description is as above. Particulars: source organism: Coxiella burnetii Dugway 5J108-111.
The target of assay [22] is HLA-A*26:02. Nature of the assay: IEDB peptide-MHC binding, purified MHC/direct/fluorescence; filed as Kd, often an IC50 or EC50 that approximates it; ≥ and ≤ were set here for values at or beyond the usual limits of such assays. Particulars: source organism: Coxiella burnetii RSA 493.
Assay [23] has as its target HLA-B*15:17. Described as above. Particulars: source organism: Coxiella burnetii.
Assay [24] deals with HLA-B*18:01. Described as above.
Assay [25] has as its target HLA-A*26:01. The assay is described as above. Conditions: source organism: Coxiella burnetii RSA 493.
Assay [26] addresses HLA-B*08:01. The assay is described as above. Particulars: source organism: Coxiella burnetii RSA 493.
Assay [27] has as its target HLA-B*15:42. Nature of the assay: IEDB peptide-MHC binding, purified MHC/competitive/fluorescence; filed as Kd, often an IC50 or EC50 that approximates it; ≥ and ≤ were set here for values at or beyond the usual limits of such assays.
For assay [28], the target named is HLA-B*45:06. The description is as above.
The target of assay [29] is HLA-B*83:01. The description is as above.
Assay [30] concerns the target HLA-A*32:15. Described as above. Particulars: source organism: Human alphaherpesvirus 1.
The target of assay [31] is HLA-B*51:01. Nature of the assay: IEDB peptide-MHC binding, purified MHC/direct/fluorescence; filed as Kd, often an IC50 or EC50 that approximates it; ≥ and ≤ were set here for values at or beyond the usual limits of such assays. Conditions: source organism: Human alphaherpesvirus 1.
The target in assay [32] is HLA-C*05:01. The assay is described as above.
The target in assay [33] is HLA-B*44:02. The assay is described as above. Particulars: source organism: West Nile virus.
For assay [34], the target named is HLA-A*29:02. The description is as above. Conditions: source organism: West Nile virus.
The target in assay [35] is HLA-B*40:13. Nature of the assay: IEDB peptide-MHC binding, purified MHC/competitive/fluorescence; filed as Kd, often an IC50 or EC50 that approximates it; ≥ and ≤ were set here for values at or beyond the usual limits of such assays. Particulars: source organism: Vibrio vulnificus YJ016.
Assay [36] has as its target HLA-C*06:02. The description is as above. Conditions: source organism: Vibrio vulnificus YJ016.
Assay [37] has as its target HLA-A*03:01. The description is as above. Particulars: source organism: Vibrio vulnificus YJ016.
The target in assay [38] is HLA-C*04:01. The assay is described as above. Particulars: source organism: Vibrio vulnificus YJ016.
For assay [39], the target named is HLA-B*27:20. The assay is described as above. Conditions: source organism: Vibrio vulnificus YJ016.
Assay [40] has as its target HLA-C*14:02. The description is as above. Conditions: source organism: Vibrio vulnificus YJ016.
The target in assay [41] is HLA-C*03:03. Nature of the assay: IEDB peptide-MHC binding, purified MHC/direct/fluorescence; filed as Kd, often an IC50 or EC50 that approximates it; ≥ and ≤ were set here for values at or beyond the usual limits of such assays. Conditions: source organism: Vibrio vulnificus YJ016.
Where [42] appears, read: source organism: Giardia lamblia ATCC 50803.
The mark [43] stands for this setting: source organism: Coxiella burnetii.
[44] abbreviates: source organism: Human alphaherpesvirus 1.
[45] abbreviates: source organism: West Nile virus.
Where [46] appears, read: source organism: Vibrio vulnificus YJ016.

In general, Kd refers to the constant that tells how readily two partners part at equilibrium. Read a high Kd as weaker binding.

With ETESVNSNY, the Kd in assay [1], in [2], in assay [3] (setting [42]), in [4] (setting [42]), in assay [5] (setting [42]) and in [6] (setting [42]) was no less than 20 µM throughout. In addition, the equilibrium dissociation constant (Kd) is no less than 20 µM in [7] (setting [42]); 18.8 nM in assay [8] (setting [42]); no less than 20 µM in assay [9] (setting [42]); no less than 20 µM in [10] (setting [42]); no less than 20 µM in assay [11] (setting [42]); no less than 20 µM in assay [12] (setting [42]). Besides, the Kd in assay [13] (setting [42]) was no less than 20 µM; in [14], no less than 20 µM; in assay [15] (setting [42]), no less than 20000 nM; in assay [16] (setting [42]), no less than 20 µM; in assay [17] (setting [42]), no less than 20 µM; in assay [18], no less than 20 µM. In [19] (setting [42]), this sequence displayed a Kd of no less than 20 µM.

Turning to IIGLLKIFR, the Kd is 1320 nM in assay [20]; no less than 20 µM in [21]; no less than 20 µM in [3] (setting [43]); 0.225 µM in [4] (setting [43]); no less than 20 µM in assay [22]; no less than 20 µM in assay [5] (setting [43]). Also, the dissociation constant (Kd) in assay [6] (setting [43]) is no less than 20 µM; in [23] it was no less than 20 µM; in assay [7] (setting [43]), no less than 20 µM; in [8] (setting [43]) it was no less than 20000 nM; in assay [9] (setting [43]), no less than 20 µM; in assay [10] (setting [43]) it was no less than 20 µM. Also, the equilibrium dissociation constant (Kd) in assay [11] (setting [43]) is no less than 20 µM; in assay [12] (setting [43]) it was 0.407 µM; in [13] (setting [43]) it was no less than 20 µM; in assay [16] (setting [43]), 0.0227 µM; in assay [24] (setting [43]), no less than 20 µM; in assay [25] it was no less than 20 µM. Besides, the Kd in assay [26] and in assay [19] (source organism: Coxiella burnetii RSA 493) was no less than 20 µM throughout.

For MPYAAHDPI, the dissociation constant (Kd) in assay [27] (setting [44]) is no less than 5 µM; in [28] (setting [44]), no less than 5 µM; in [29] (setting [44]) it was 172 nM; in assay [30], 136 nM; in assay [31], 364 nM; in [32] (setting [44]), no less than 20000 nM.

Turning to TSDYINTSL, the dissociation constant (Kd) in assay [4] (setting [45]), in [5] (setting [45]), in [6] (setting [45]), in assay [7] (setting [45]), in assay [9] (setting [45]) and in assay [10] (setting [45]) was no less than 20 µM throughout. Further, the dissociation constant Kd in [11] (setting [45]) was no less than 20 µM; in assay [12] (setting [45]) it was no less than 20 µM; in [32] (setting [45]), 210 nM; in [13] (setting [45]), no less than 20 µM; in assay [15] (setting [45]), 1480 nM; in [16] (setting [45]), no less than 20 µM. The dissociation constant Kd in [24] (setting [45]) was no less than 20 µM; in [33], no less than 20 µM; in [34] it was no less than 20 µM; in assay [17] (source organism: West Nile virus strain PTRoxo), no less than 5 µM.

KMFNRASYF: the Kd is 2.4 nM in assay [35]; no less than 5 µM in assay [27] (setting [46]); 68 nM in [36]; no less than 5 µM in [28] (setting [46]); 4.8 nM in [37]; no less than 5000 nM in [29] (setting [46]). Further, the dissociation constant (Kd) in assay [38] was determined as 304 nM; in assay [39] it was 1.2 nM; in assay [40], 4 nM; in [41], 2720 nM.
